# Measurements reported in the DeepSol protein solubility set.
# Assay: soluble on expression in E. coli; label from the status in PepcDB or PDB records
row,Sequence,soluble on expression in E. coli
1,MSLAQSIVVVAEPSHSDLYDLLAVGNAGIRLVSAAGLSTAIGPSDPDIVILDSGTDADGGITLLGEIKALRNDLPVIFLTDSSSEEIVLKAFRKGAREYFRKPVDLHVLQHAVETILALRRMQRERRDPLKRHYSDPINLPDDLPESIGRAVMHIKSNYDCALYLDDLARAAHLSKFHFCRNFKKYIGVSPMRFMNMVKISKAETLLRRADLTISTVAYKLGFNDPSEFTRQFKSITGISPSAFRRSCLSEGHHHHHH,not soluble
2,MSLARIKDVAELAGVNRSTVSRIINGEGKFREETRKKVEQAMAQLNYRPSAIARSLATSSSNMVGLLVTYYTGGFFGEMMEQVQTELDIHKKFLITAQGHHSAEGEKEAIQRFNDLRCDGYVLHSRYLSDDDLRELAKLPTPFVLLDRYVEGIEERCITFNHHHASRIAVEHLIAGGHKNIACITGPSLRHNSLLRKLGYVDAMKTAGIDIDESWCEEGNYGRQSGYDAMASILKRHPEVTAVFSCSEEMTVGAMQYLHEHKISVPEQISLTSFDSVDLCESLYPTVSAVHFPISDMARAAVQTLMGLVKKQEHIEKPVFEAKLKLRHADREGHHHHHH,soluble
3,MSLARLQFQLKVDGLEDESLVVRGFEGQESLSDSVWRCEPCYGFRYQVDLASALSNLTAEQFVDQTAHLTILRDGQVVQQINGIVRQLSKGDTGHRHTFYSLTLVPALERLSLRSNSRIFQQQSVPEIISILLQEMGIEDYAFALKRECAQREFCVQYRETDLQFLHRIAAEEGLVYSHLHEAQKHTLLFTDSSDSQPKLAKPVPYNALAGGEINLPYVVDLQFKTTAQVSHTELKDYSFKKPAYGFTQRTQGKDIAYQQPNYEHFDAPGRYKDDANGKAFSQIRLEYLRRDALLADAKSDEPLLLAGVRFDLQDHLDHAMNRDWLVVQANHQGTQPQALQEEGGSGATTYSNQLKLIPAHITWRARPCAKPQVDGPMIATVVGPQGEEIYCDNFGRVKVHFPWDRYSSSNEKSSCWVRVAQEWAGSQYGSMAIPRVGHEVIVSFLNGDPDQPIITGRTYHATNTAPYALPDHKTKTVLRTETHQGQGYNELSFEDQAGSEQILLHAQKDWDALIEHDHTEVIRHDQHLTVDNDRFTRIQRNQHLTVEGEVRSKIALDSSHEVGASLQHKVGQRIAVEAGKEISLKSGAKIVVEAGAELTLKAGGSFVKVDAGGVHLVGPAINLNAGGSAGSGSAYGGQLAAAPRMLAQAKPVAELVQPDIAASMQSGAARVIDVASLPTMMPSSANNTANDEPVAEEKTPERILKSDLLKPSDELEKLAKRQASAYRQGNHSDEVKLLQEALIKLGFDLGKAGADGDFGSKTKTAIEQFQKSYQPSHQTHPSYSIGAVDGIVGKGTLLALDEALMDGWVYENNIYQIWPLGKTSEKYESAGRGPGVISTGNGDYGGASYGCYQMSSNLGVVQKYIQSSKFKEFFSGLNPATKEFNVVWQDIASRYPQEFREEQHQFIKRTHYDIQIGHLRGKGLLFEHNRAAVHDLIWSTSVQFGGRTNLIFNALNGQNMESMTDKDIIILVQDYKLVNTERLFKSSPSWWSDLKKRAVSEKKALLELEIDGLEVDIKEGGSHHHHHH,not soluble
4,MSLASLIGLAVCTGNAFSPALAAEAKQPNLVIIMADDLGYGDLATYGHQIVKTPNIDRLAQEGVKFTDYYAPAPLSSPSRAGLLTGRMPFRTGIRSWIPSGKDVALGRNELTIANLLKAQGYDTAMMGKLHLNAGGDRTDQPQAQDMGFDYSLANTAGFVTDATLDNAKERPRYGMVYPTGWLRNGQPTPRADKMSGEYVSSEVVNWLDNKKDSKPFFLYVAFTEVHSPLASPKKYLDMYSQYMSAYQKQHPDLFYGDWADKPWRGVGEYYANISYLDAQVGKVLDKIKAMGEEDNTIVIFTSDNGPVTREARKVYELNLAGETDGLRGRKDNLWEGGIRVPAIIKYGKHLPQGMVSDTPVYGLDWMPTLAKMMNFKLPTDRTFDGESLVPVLEQKALKREKPLIFGIDMPFQDDPTDEWAIRDGDWKMIIDRNNKPKYLYNLKSDRYETLNLIGKKPDIEKQMYGKFLKYKTDIDNDSLMKARGDKPEAVTWGEGHHHHHH,soluble
5,MSLATESDETSLDFPDHALERVRDILRLRRNFDISSYKDKYLKRRIAIRVRATRSVTADAYCDLVARNERELELLLKGLTIHVSQFFRNSSTFEALRGTVLPAIFDRLRREGRDSATFWSVGCASGEEPYSLAIILRDSFRESLKEFKVSLVATDIDGGILDAARAGIYSPERLAEVPAEVKDRYFRPMGERFVLDPTIREMVDFRRSDLFDPESSVESDLILCRNVLIYFERSEQARILRGFVSSLCTGGVLVLGKAETLVAEVRQRFTTLCPMERIYQKNRFSVYEGHHHHHH,soluble
6,MSLATNKKEIIRLLEEIATYMELKGENSFKISAFRKAAQAIELDSRSLSEIDDFTKISGIGKTTGEIIQRYLDSGECPELEELKKEVPAGLVPLLDVPGLGGKKLSRLYHELGVVDKDTLLQEAENGHIEALKGFGKKSAEKMAEAVREMGERPDRYPLNDVLPIIQKVEAYLAEIAPIETFAQAGSLRRLRETVKDLDYVIATEKPEDVQKALLAFPLITDVIGAGETKVSAVLEDNITISVDFRLVEKKAFATTLHHFTGSKDHNIKMRQLAKQSNEKISEYGVEQEDGTVRHFESEKTFFEHFKIPFLPPEVRRDGTEIERVTKDTKFLELSDIRGDLHMHTTWSDGAYAIPEMIEACIAKGYEYMVITDHGKFLRVANGLDEKRLLEQQAEIKKIAAKYPEIDVYSGVEMDILADGSLDFDDETLKQLDFVIASIHSSFQQSEEEIMKRLKTACENPYVRLIAHPTGRIVVKRKPYHVNMKELIQLAKSTGTALELNANPQRLDLNREHLEMAHAAGVPIAINTDAHDTKHLDFMSIGVRAATKAWLGKSAILNTKTAAEFKQFLQNKEGHHHHHH,soluble
7,MSLATTLVLGGGYAGMRAVKFLQKSLPTEDEIILVDQTPTHTEKTNLHEVAAGTIAPDRITYQIPDIIGKRVQFVQATVKNVDIEQKQVTFEDHPEMTYDYLVLALGFQSETFGVAGADENALPMDDLATSQAVYEHLEERFKAYRTSKDKNDLKIAVCGAGFTGIELLGELTQTLPRLQAKYQTPAAKLVCLERMPSILPMFTQELRDYALKFMEKNNVEMRLGAVIEAIKPGAVVYSDADKNEHEFTANTIIWTVGVSGSHVIADSGFDQRRNRVVVKPDLSLEGHPEVFIVGDVAAVMDPESNRPYPTTAQIALAAGEQAAKNIGALRHNQATATFHYESSGTVASLSDRDGIGEIFSSNKPVHGYAASALKKIITDRSLLESAHLGTVFSKGRFDLYHEGHHHHHH,soluble
8,MSLAWDEGKPRIITLTMNPALDITTSVDVVRPTEKMRCGAPRYDPGGGGINVARIVHVLGGCSTALFPAGGSTGSLLMALLGDAGVPFRVIPIAASTRESFTVNESRTAKQYRFVLPGPSLTVAEQEQCLDELRGAAASAAFVVASGSLPPGVAADYYQRVADICRRSSTPLILDTSGGGLQHISSGVFLLKASVRELRECVGSELLTEPEQLAAAHELIDRGRAEVVVVSLGSQGALLATRHASHRFSSIPMTAVSGVGAGDAMVAAITVGLSRGWSLIKSVRLGNAAGAAMLLTPGTAACNRDDVERFFELAAEPTEVGQDQYVWHPIVNPEASPEGHHHHHH,soluble
9,MSLAYMPMTTVQHIATTNEKQAQKIIAELNAGASFDSQVRKYQNNRQAHTTAGKLAQFDSYNQTLAPAIVQATAKLRVGHYVTKPVKTVMATADTKDKPTYEIINVVSREGHHHHHH,soluble
10,MSLCCISFRVGTGPCVTSGADRLTKGPLRKSAPVSQPEANPKSRSFSGNFLNHTFRRENPMSEITSLVTAEAVKDVLRSEEVRSALKQKLRHNLEARLDAEVDAILDELLGVQAEPPTEAGDTTAESGEVQPESPVADATEPQPESVMMLEGHHHHHH,soluble
11,MSLCEKEINNNNNNNELTEKSKEEIEKDEIEYLEYLKYRKEIIDSHCHIHEDVEHLQESCDLPFKKILLMGTTVEDWDKINQLADKINDDNKIIRCFGIHPWFVYNYLPPTELIGKIKEGDGSNDSIIISIDETWRIKMKELLLKYPNSIVGEIGIDKVTKVRLNGFNKNDQESQMRVFRDQIEIANELDRLVSLHCVQLQGQLLTFFQSLDIDKFPPAIALHTFGGKPATVDQFCKMASGKGDKFYFGLSFINLTFSKVDKLIQAIPDDRLLLESDQNSPTQVDQSLFKLIQKISISKNWTIQKTIEQTTLNTLNFLSKQIKKEGHHHHHH,soluble
12,MSLCGISGLVQLEGVADTSAMRRSVETMVKALAHRGPDDSGVAGDGSAVFGMARLAIRGCHDGRQPMVDAETGVMMVCNGEIDNHAELRGWLAERGRAVEHATDVAVIPGLYLELGDGFVERLVGAFALAVWDPRRGRLLLARDRAGERPLFYACRDGRVSFASQAAALVAGSPEPYPADEAAVQAFLKAGYFEAPASPFAGMRKVLPGERIAIDVKGVERSRYWRLNFTRGPARKNPLDEFDAVFREAVRRQSEVEVDFGAFLSGGVDSSLVTAVMRSVHPDRKLKAFGLRFSESSYDEGVFAERVAESLGVDYTPIWVRPEDFPETLADLVRQSGEPLADPAWVPTALLARRASDEVRVALVGEGADELFGGYPTYFGARLAERYSRLPGGLRALIRKAVEAWPVSDKKVTVSFLLKRFVQGDELDFLARHVLWTSSIPPALLRRLGVTPPETPHVAGPQETMLDRLQQHDLETSLAEGLLTKADRASMRSALELRAPFLDKDVIEFAATLPERERVQGLETKVFLKRVALRYLPKDIVYRKKRGLSVPLSAWLRGPLHDWAEARISSPRLEELGINRAAALELLREHERRSADHARALWTLIVVSEWLEWKAGMEAHEGHHHHHH,soluble
13,MSLDEEKVGTEVPDPEISKMLFSEFCKSDGIGVSDVTKEEEFRYEDAWLTGYTYTQEVSIADLTEIISHSLTIQYGNNRSSVTFTDEIGTERKYTLNEEGYATQCEYASLDQKRQYTFLYTDGYLTQVNEKIMPREGSSDAVVAHTLSLQYDKGDLISTISPSLPYESSTGYGKLQTNYEAGEDINYYRLPCMLVADTYPLSFHREALFAGMLGKPTQHLTTASYPEKTSDTYTERTEYTYSFDKNKKPVSLKVSTKYGNGKSISYLNRTISITIEGHHHHHH,soluble
14,MSLDESKGFIEDSKLSVKTRMLYFSRDFRNNAPGSQSRVEETGLGFLGTFESGFTQGTVGFGVDAIGMLGLKLDSGKGRAGTGLFPTGADGRSQDDYSEGGGAVKMRISNTVLKFGDQFTALPVLATDDSRLLPEVAEGGLITSNEIDDLTVHAGHFTALNAQAQTYHDSLNLTEANVFGGTYAITDSLSTSVYYSRIEDHFRKWYGNINWALPISDKQGLVFDFNIYDTKSIGNNLTGAYVSKSDGTNELDNIAASLSAAYNVGAHTFTLAYQKVSGDGDYAYGVDGGGTVFLANSVARSDFNAEDEKSWQARYDLNFAEFGVPGLTFMTRYVSGTGATTRTTDSGKEWERDIDVKYVMQSGPAKDLSFRVRQATYRSGEGHHHHHH,soluble
15,MSLDEVECSADHIARPILILKETRRLPWATGYAEVINAGKSTHNEDQASCEVLTVKKKAGAVTSTPNRNSSKRRSSLPNGEGLQLKENSESEGVSCHYWSLFDGHAGSGAAVVASRLLQHHITEQLQDIVDILKNSAVLPPTCLGEEPENTPANSRTLTRAASLRGGVGAPGSPSTPPTRFFTEKKIPHECLVIGALESAFKEMDLQIERERSSYNISGGCTALIVICLLGKLYVANAGDSRAIIIRNGEIIPMSSEFTPETERQRLQYLAFMQPHLLGNEFTHLEFPRRVQRKELGKKMLYRDFNMTGWAYKTIEDEDLKFPLIYGEGKKARVMATIGVTRGLGDHDLKVHDSNIYIKPFLSSAPEVRIYDLSKYDHGSDDVLILATDGLWDVLSNEEVAEAITQFLPNCDPDDPHRYTLAAQDLVMRARGVLKDRGWRISNDRLGSGDDISVYVIPLIHGNKLSEGHHHHHH,soluble
